In patent US20160251440A1 (Ablynx, published 2016):
Changes are numbered by the printed parent chain. Each block holds one binder with its values, some of them ahead of it.

What was measured:
[1] = biological target: T1, human CD4, cell-expressed (human, UniProt P01730 26-458); assay: flow cytometry on MOLM-13 cells (CD4, no IL12R or IL23R), upper right panel
T1 construct: whole, on cells

[2] = biological target: T2, human IL-23R extracellular domain Fc-fusion (human, UniProt Q5VWK5 24-355); assay: competition ELISA, coated IL-23 + 5 nM IL-23R-Fc
T2 construct: extracellular domain; bought; also called IL-23R-Fc
T2 sequence (looked up): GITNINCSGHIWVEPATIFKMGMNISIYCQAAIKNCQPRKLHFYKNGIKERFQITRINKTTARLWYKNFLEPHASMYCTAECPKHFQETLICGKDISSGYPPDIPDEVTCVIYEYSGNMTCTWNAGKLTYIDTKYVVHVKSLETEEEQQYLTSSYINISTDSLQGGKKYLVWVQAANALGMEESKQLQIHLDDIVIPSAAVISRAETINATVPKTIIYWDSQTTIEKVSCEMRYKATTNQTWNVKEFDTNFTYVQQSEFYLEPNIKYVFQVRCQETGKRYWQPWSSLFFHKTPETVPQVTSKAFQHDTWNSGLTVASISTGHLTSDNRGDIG

[3] = biological target: T2, human IL-23R extracellular domain …; assay: SPR Biacore T100, captured IL-23R-Fc
[4] = biological target: T2, human IL-23R extracellular domain …; assay: competition ELISA, coated IL-23 + IL-23R-Fc
[5] = biological target: T3, human IL12Rβ2 extracellular domain Fc-fusion (human, UniProt Q99665 24-622); assay: competition ELISA, ratio to monovalent IL12Rb2#1
T3 construct: extracellular domain; bought; also called IL12Rβ2-Fc; hIL-12Rβ2-Fc
T3 sequence (looked up): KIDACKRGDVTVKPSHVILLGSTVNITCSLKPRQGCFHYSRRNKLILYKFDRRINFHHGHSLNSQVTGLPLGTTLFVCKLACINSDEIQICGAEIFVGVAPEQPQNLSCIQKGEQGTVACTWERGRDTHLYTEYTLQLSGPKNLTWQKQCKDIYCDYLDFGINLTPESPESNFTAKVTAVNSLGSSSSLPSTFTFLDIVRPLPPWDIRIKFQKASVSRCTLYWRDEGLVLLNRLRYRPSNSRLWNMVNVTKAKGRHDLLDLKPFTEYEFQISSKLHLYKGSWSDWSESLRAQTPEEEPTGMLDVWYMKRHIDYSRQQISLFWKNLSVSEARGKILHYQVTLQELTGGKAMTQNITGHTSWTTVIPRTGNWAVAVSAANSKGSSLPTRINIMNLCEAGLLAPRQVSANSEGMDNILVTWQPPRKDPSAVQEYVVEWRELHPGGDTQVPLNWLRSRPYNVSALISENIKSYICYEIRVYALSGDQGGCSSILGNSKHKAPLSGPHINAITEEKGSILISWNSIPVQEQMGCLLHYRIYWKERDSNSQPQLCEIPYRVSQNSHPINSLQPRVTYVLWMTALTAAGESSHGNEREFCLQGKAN

[6] = biological target: T4, human IL12Rβ2, cell-expressed (human, UniProt Q99665 24-862); assay: cell-based or functional assay
T4 sequence (looked up): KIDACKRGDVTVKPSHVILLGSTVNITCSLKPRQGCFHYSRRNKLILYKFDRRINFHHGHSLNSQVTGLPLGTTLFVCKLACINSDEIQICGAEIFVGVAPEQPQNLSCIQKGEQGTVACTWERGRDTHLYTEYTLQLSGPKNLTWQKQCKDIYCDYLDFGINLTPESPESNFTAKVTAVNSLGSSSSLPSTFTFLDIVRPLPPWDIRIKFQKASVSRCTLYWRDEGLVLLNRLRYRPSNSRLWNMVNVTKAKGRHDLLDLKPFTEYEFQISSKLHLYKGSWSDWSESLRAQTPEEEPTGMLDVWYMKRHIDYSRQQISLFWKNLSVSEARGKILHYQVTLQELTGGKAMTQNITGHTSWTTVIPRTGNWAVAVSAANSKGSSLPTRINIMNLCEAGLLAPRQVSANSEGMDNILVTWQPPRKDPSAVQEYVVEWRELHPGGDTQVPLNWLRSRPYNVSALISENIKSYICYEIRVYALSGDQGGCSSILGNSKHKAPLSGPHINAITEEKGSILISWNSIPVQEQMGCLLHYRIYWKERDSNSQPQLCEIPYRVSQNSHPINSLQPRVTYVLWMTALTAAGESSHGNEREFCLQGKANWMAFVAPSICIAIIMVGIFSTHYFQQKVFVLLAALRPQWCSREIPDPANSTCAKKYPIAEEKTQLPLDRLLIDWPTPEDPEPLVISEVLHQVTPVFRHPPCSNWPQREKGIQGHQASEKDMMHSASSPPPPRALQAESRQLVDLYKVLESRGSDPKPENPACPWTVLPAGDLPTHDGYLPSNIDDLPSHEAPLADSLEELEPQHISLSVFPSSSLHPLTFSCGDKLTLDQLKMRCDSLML

[7] = biological target: T5, human IL12Rβ1, cell-expressed (human, UniProt P42701 24-662); assay: flow cytometry on isolated CD8+ T cells of donor D863, anti-Flag detection
T5 construct: whole, on cells; in the context of the heterodimeric receptor; also called IL12Rb1

[8] = biological target: T1, human CD4, cell-expressed; assay: flow cytometry on activated T cells of donor D838 (very high CD4, moderate IL12R), upper left panel
[9] = biological target: T1, human CD4, cell-expressed; assay: flow cytometry on MOLM-13 cells (CD4, no IL12R or IL23R), upper left panel
[10] = biological target: T3, human IL12Rβ2 extracellular domain …; assay: competition ELISA, coated IL-12 + IL12Rβ2-Fc
[11] = biological target: T3, human IL12Rβ2 extracellular domain …; assay: competition ELISA, ratio to monovalent IL12Rb2#2
[12] = biological target: T2, human IL-23R extracellular domain …; assay: competition ELISA, ratio to monovalent IL23R#19
[13] = biological target: T1, human CD4, cell-expressed; assay: flow cytometry on activated T cells of donor D838 (very high CD4), lower left panel
[14] = biological target: T6, human IL-23R, cell-expressed (human, UniProt Q5VWK5 24-629); assay: cell-based or functional assay
T6 sequence (looked up): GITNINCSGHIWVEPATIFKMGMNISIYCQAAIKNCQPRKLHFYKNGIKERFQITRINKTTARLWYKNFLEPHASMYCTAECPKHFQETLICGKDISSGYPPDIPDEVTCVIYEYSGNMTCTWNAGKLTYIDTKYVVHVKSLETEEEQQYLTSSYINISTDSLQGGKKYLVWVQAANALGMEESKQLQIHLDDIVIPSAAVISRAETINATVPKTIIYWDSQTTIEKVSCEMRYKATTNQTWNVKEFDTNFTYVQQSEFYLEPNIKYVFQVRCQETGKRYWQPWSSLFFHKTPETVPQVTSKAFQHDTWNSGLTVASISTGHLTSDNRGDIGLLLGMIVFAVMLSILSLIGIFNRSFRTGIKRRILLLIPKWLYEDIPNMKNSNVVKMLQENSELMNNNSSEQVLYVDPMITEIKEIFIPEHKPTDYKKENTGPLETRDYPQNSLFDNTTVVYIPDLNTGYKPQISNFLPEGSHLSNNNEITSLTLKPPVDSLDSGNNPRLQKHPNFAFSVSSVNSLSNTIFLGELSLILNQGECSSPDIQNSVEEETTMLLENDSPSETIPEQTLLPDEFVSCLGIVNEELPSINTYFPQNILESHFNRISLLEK

B2: IL12Rb2#1-35GS-CD4#8 (bispecific antibody)
chain: EVQLVESGGRLVQAGDSLRLSCAASGRTFISYRMGWFRQAPGKEREFVAALRWSSSNIDYTYYADSVKGRFSISGDYAKNTVYLQMNSLKAEDTAVYYCAASTRWGVMESDTEYTSWGQGTLVTVSSGGGGSGGGGSGGGGSGGGGSGGGGSGGGGSGGGGSEVQLVESGGGSVQPGGSLTLSCGTSGRTFNVMGWFRQAPGKEREFVAAVRWSSTGIYYTQYADSVKSRFTISRDNAKNTVYLEMNSLKPEDTAVYYCAADTYNSNPARWDGYDFRGQGTLVTVSS
notes: defined by its make-up (Nb1-Nb2)
fold ctrl [5]: 0.9 fold
IC50, IFNγ release, PBMC D840 [6]: 1.1 nM
IC50, IFNγ release, T cells D839 [6]: 0.11 nM
fold ctrl, IFNγ release, PBMC D840 [6]: 11 fold
fold ctrl, IFNγ release, T cells D839 [6]: 400 fold
binding result [7]: no binding (tested: 250 nM)
EC50 (read off the curve) [8]: ~1 nM
EC50 (read off the curve) [9]: ~1 nM
IC50 [10]: 4.8 nM

B6: CD4#8-35GS-IL12Rb2#1 (bispecific antibody)
chain: EVQLVESGGGSVQPGGSLTLSCGTSGRTFNVMGWFRQAPGKEREFVAAVRWSSTGIYYTQYADSVKSRFTISRDNAKNTVYLEMNSLKPEDTAVYYCAADTYNSNPARWDGYDFRGQGTLVTVSSGGGGSGGGGSGGGGSGGGGSGGGGSGGGGSGGGGSEVQLVESGGRLVQAGDSLRLSCAASGRTFISYRMGWFRQAPGKEREFVAALRWSSSNIDYTYYADSVKGRFSISGDYAKNTVYLQMNSLKAEDTAVYYCAASTRWGVMESDTEYTSWGQGTLVTVSS
notes: defined by its make-up
fold ctrl [5]: 0.4 fold
IC50, IFNγ release, PBMC D840 [6]: 1.9 nM
IC50, IFNγ release, T cells D839 [6]: 0.78 nM
fold ctrl, IFNγ release, PBMC D840 [6]: 8 fold
fold ctrl, IFNγ release, T cells D839 [6]: 74 fold
EC50 (read off the curve) [8]: ~1 nM
EC50 (read off the curve) [9]: ~1 nM
IC50 [10]: 10 nM

B7: CD4#8-35GS-IL12Rb2#2 (bispecific antibody)
chain: B6 chain with I190T, A209S, S216G
notes: defined by its make-up
IC50, IFNγ release, PBMC D840 [6]: 2.1 nM
IC50, IFNγ release, T cells D839 [6]: 0.76 nM
fold ctrl, IFNγ release, PBMC D840 [6]: 8 fold
fold ctrl, IFNγ release, T cells D839 [6]: 130 fold
EC50 (read off the curve) [8]: ~1 nM
EC50 (read off the curve) [9]: ~1 nM
fold ctrl [11]: 0.6 fold
IC50 [10]: 25 nM

The next lines start with the values.

binding result [1]: no binding (tested: 1E-6 M)
IC50 [2]: 16 nM
Kd [3]: 78 nM
koff [3]: 0.23 s⁻¹
kon [3]: 3e+06 M⁻¹ s⁻¹
IC50 [4]: 16 nM
B1: IL23R#20: 150H07 (VHH)
VHH: EVQLVESGGGLVQAGGSLRLSCAASGRTFSSYAMGWFRQAPGKDREFVAAISWIGESTYYADSVKGRFTISRDNAKNTVYLRMNSLKPEDTAVYYCAADLYYTAYVAAADEYDYWGQGTLVTVSS
notes: bispecifics print NAKNTVY where this entry prints NAKNIVY; also called LG150H07

IC50, IFNγ release, PBMC D840 [6]: 1.6 nM
IC50, IFNγ release, T cells D839 [6]: 0.031 nM
fold ctrl, IFNγ release, PBMC D840 [6]: 30 fold
fold ctrl, IFNγ release, T cells D839 [6]: 1130 fold
EC50 (read off the curve) [8]: ~1 nM
EC50 (read off the curve) [9]: ~1 nM
fold ctrl [11]: 1.4 fold
IC50 [10]: 11 nM
B3: IL12Rb2#2-35GS-CD4#8 (bispecific antibody)
chain: B2 chain with I30T, A49S, S56G
notes: defined by its make-up

EC50 (read off the curve) [1]: ~4 nM
binding result [7]: no binding (tested: 250 nM)
fold ctrl [12]: 0.3 fold
EC50 (read off the curve) [13]: ~1 nM
IC50 [4]: 6.1 nM
B4: IL23R#19-35GS-CD4#8 (bispecific antibody)
chain: EVQLVESGGGLVQPGGSLTLSCVASGRTFSTDVMGWFRQAPGKEREFVAAHRTSGISTVYAASVKGRFTISRDNAKNTVYLGMKSLKPEDTAVYVCAAGSDASGGYDYWGQGTLVTVSSGGGGSGGGGSGGGGSGGGGSGGGGSGGGGSGGGGSEVQLVESGGGSVQPGGSLTLSCGTSGRTFNVMGWFRQAPGKEREFVAAVRWSSTGIYYTQYADSVKSRFTISRDNAKNTVYLEMNSLKPEDTAVYYCAADTYNSNPARWDGYDFRGQGTLVTVSS
notes: also called BI#42; T023200042

EC50 (read off the curve) [1]: ~1 nM
IC50, IL-17 release, PBMC D840 [14]: 24.2 nM
fold ctrl, IL-17 release [14]: 4.1 fold
fold ctrl [12]: 0.3 fold
EC50 (read off the curve) [13]: ~1 nM
IC50 [4]: 6.6 nM
B5: CD4#8-35GS-IL23R#19 (bispecific antibody)
chain: EVQLVESGGGSVQPGGSLTLSCGTSGRTFNVMGWFRQAPGKEREFVAAVRWSSTGIYYTQYADSVKSRFTISRDNAKNTVYLEMNSLKPEDTAVYYCAADTYNSNPARWDGYDFRGQGTLVTVSSGGGGSGGGGSGGGGSGGGGSGGGGSGGGGSGGGGSEVQLVESGGGLVQPGGSLTLSCVASGRTFSTDVMGWFRQAPGKEREFVAAHRTSGISTVYAASVKGRFTISRDNAKNTVYLGMKSLKPEDTAVYVCAAGSDASGGYDYWGQGTLVTVSS
notes: also called BI#45; T023200045
